Source: PMC4090420

Legend:
[1] = molecular target: b12 3–5 αIM H24A (human); test: ELISA
[2] = molecular target: b12 3–5 αIM L84A (human); test: ELISA
[3] = molecular target: b12 3–5 αIM F25A (human); test: ELISA
[4] = molecular target: b12 3–5 αIM (Homo sapiens scaffold (engineered FNfn10)) (UniProt P02751); test: SPR
b12 3–5 αIM (Homo sapiens scaffold (engineered FNfn10)), sequence (P02751 whole entry, looked up, change not shown): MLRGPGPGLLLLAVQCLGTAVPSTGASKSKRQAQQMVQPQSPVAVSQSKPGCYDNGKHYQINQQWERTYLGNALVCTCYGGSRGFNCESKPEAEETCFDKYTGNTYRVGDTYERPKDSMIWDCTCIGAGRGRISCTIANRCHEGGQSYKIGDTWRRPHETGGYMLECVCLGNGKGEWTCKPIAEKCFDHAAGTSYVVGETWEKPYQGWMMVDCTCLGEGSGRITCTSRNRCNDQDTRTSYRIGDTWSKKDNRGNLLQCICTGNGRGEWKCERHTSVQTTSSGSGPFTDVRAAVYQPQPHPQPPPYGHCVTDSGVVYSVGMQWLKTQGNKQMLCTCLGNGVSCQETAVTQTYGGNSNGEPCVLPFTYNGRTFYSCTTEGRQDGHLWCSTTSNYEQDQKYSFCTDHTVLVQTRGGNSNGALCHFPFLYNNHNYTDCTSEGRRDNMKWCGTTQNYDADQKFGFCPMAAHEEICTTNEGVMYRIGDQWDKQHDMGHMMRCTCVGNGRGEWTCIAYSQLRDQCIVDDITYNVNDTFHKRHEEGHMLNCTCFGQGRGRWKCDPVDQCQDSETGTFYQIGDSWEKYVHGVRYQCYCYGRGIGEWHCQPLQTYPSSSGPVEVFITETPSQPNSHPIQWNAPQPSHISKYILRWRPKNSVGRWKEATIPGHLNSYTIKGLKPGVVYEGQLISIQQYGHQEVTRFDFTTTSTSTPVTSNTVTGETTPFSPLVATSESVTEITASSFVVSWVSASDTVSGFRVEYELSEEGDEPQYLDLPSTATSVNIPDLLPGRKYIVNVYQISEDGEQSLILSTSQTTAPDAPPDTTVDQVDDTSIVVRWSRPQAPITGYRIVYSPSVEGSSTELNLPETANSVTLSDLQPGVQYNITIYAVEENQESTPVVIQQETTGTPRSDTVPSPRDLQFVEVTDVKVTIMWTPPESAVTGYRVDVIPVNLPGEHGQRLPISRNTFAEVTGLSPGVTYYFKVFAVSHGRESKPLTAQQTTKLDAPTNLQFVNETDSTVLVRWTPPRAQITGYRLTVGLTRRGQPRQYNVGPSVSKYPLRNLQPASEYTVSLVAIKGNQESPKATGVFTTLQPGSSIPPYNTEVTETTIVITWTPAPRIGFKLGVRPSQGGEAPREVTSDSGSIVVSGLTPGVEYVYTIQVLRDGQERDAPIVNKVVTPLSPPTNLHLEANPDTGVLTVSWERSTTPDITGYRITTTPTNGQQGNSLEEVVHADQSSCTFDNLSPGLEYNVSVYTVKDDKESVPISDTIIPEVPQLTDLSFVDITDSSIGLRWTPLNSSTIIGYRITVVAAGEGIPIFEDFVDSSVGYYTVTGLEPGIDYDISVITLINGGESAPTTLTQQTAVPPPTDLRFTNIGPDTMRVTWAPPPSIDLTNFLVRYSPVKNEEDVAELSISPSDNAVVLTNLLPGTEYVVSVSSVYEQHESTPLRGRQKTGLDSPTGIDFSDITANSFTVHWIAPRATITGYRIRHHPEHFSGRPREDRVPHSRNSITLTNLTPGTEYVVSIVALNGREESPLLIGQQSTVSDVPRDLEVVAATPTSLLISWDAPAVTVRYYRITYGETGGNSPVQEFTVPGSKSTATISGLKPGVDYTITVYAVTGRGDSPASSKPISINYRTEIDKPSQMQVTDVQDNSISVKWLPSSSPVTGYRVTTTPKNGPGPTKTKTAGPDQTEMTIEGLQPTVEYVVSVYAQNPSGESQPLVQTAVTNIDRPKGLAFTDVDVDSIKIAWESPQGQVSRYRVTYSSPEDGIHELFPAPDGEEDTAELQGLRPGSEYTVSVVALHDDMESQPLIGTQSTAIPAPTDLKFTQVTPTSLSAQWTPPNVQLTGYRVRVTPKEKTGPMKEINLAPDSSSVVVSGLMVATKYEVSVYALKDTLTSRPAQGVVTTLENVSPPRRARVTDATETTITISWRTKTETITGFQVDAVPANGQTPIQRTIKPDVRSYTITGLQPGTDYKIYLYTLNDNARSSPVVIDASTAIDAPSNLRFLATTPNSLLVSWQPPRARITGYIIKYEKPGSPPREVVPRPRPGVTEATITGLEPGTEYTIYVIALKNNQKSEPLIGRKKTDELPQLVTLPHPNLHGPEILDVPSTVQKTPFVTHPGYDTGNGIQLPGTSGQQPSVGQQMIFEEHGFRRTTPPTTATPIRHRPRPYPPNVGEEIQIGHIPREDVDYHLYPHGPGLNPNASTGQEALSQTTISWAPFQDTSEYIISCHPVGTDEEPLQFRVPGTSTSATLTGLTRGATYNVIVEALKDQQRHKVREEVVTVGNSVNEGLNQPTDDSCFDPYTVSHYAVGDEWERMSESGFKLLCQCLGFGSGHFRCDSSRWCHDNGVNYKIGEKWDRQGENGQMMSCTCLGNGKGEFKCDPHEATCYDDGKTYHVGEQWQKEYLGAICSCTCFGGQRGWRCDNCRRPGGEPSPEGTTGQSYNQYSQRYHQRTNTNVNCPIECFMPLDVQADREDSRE

Row | Substance | fold decrease of binding against wild type b12 3–5 αIM [1] [fold] | fold decrease of binding against wild type b12 3–5 αIM [2] [fold] | fold decrease of binding against wild type b12 3–5 αIM [3] [fold] | Kd [4] [nM] | koff [4] [s⁻¹]
1 | b12 MAb (antibody) | > 10 | 5 | > 10 |  | 
2 | b12 Fab |  |  |  | 43 | 0.0068
